T1: FcγRIIb extracellular domain with C-terminal His tag (human, UniProt P31994 43-217)
T1 construct: extracellular domain; also called FcgRIIb; 2b; not shown: His tag at the C terminus
T1 sequence (looked up): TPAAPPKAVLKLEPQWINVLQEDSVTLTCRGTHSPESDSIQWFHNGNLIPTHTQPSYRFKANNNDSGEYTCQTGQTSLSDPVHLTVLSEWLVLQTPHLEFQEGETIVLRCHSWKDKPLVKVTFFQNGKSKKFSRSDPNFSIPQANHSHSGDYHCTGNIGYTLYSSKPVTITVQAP


Columns and labels:
[1] = molecular target: T2, FcγRIIIa extracellular domain with C-terminal His tag (human, UniProt P08637 17-208); experiment: SPR (Biacore); ratio of He/Con_3a (FcγRIIIa) to He/Con_2b (FcγRIIb)
T2 construct: extracellular domain; also called FcgRIIIa; 3a; not shown: His tag at the C terminus
T2 sequence (P08637 17-208): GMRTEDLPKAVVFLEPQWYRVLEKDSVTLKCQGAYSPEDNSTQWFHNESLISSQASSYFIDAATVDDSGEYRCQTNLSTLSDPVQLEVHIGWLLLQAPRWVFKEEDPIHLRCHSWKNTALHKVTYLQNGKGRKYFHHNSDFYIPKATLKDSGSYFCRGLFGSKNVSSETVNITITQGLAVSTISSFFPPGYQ
Description: (§1) The heterodimerized antibodies He Abs in which one of the H chains was introduced with an alteration were assayed for their binding activities to each activating FcγR and inhibitory FcγR according to the method described in Example 4. […] The activating FcγRs in FIGS. 26, 27, 28, and 29 are FcγRIa, FcγRIIa (R), FcγRIIa (H), and FcγRIIIa, respectively.
(§2) Analysis of interaction between objective antibody and the FcγR was carried out using Biacore T100 (GE Healthcare). HBS-EP+ (GE Healthcare) was used as the running buffer, and the measurement temperature was set to 25° C. Chips produced by immobilizing the antigen peptide by the amine coupling method to a Series S Sencor Chip CM5 (GE Healthcare), or alternatively, chips produced by allowing preliminarily biotinylated antigen peptides to interact with and immobilize onto a Series S Sensor Chip SA (certified) (GE Healthcare) were used. Antibodies of interest were captured onto an antigen peptide-immobilized chip, and allowed to interact to each FcγR diluted with running buffer. To regenerate and repeatedly use the chip, the antibodies captured on the chip were washed off by reacting 10 mM glycine-HCl, pH 1.5.

[2] = molecular target: T1, FcγRIIb extracellular domain with …; experiment: SPR (Biacore), antibody captured, FcγR as analyte; He Ab binding / GpH7-A5/GpH7-B3/GpL16-k0 binding x 100
Description: as §1, §2

[3] = molecular target: T2, FcγRIIIa extracellular domain with …; experiment: as above
Description: as §1, §2

Row | Binder | He_3a/2b (IIIa/IIb) [1] [ratio] | He/Con_2b (IIb binding) [2] | He/Con_3a (IIIa binding) [3]
1 | GpH7-A5/GpH7-B3 variant A330_06M/GpL16-k0 (antibody, human IgG1, kappa, position is EU numbering; also called He Ab) heavy 1: not shown heavy 2: not shown light: DIVMTQSPLSLPVTPGEPASISCQASESLVHSNRNTYLHWYLQKPGQSPQLLIYKVSNRFSGVPDRFSGSGSGTDFTLKISRVEAEDVGVYYCSQNTHVPPTFGQGTKVEIERTVAAPSVFIFPPSDEQLKSGTASVVCLLNNFYPREAKVQWKVDNALQSGNSQESVTEQDSKDSTYSLSSTLTLSKADYEKHKVYACEVTHQGLSSPVTKSFNRGEC | 1.76 | 80.5 relative, control = 100 | 142 relative, control = 100
2 | GpH7-A5/GpH7-B3 variant A330_15Y/GpL16-k0 (antibody, human IgG1, kappa, position is EU numbering; also called He Ab) heavy 1: not shown heavy 2: not shown light: DIVMTQSPLSLPVTPGEPASISCQASESLVHSNRNTYLHWYLQKPGQSPQLLIYKVSNRFSGVPDRFSGSGSGTDFTLKISRVEAEDVGVYYCSQNTHVPPTFGQGTKVEIERTVAAPSVFIFPPSDEQLKSGTASVVCLLNNFYPREAKVQWKVDNALQSGNSQESVTEQDSKDSTYSLSSTLTLSKADYEKHKVYACEVTHQGLSSPVTKSFNRGEC | 1.32 | 95 relative, control = 100 | 125 relative, control = 100
3 | GpH7-A5/GpH7-B3 variant E333_02A/GpL16-k0 (antibody, human IgG1, kappa, position is EU numbering; also called He Ab) heavy 1: not shown heavy 2: not shown light: DIVMTQSPLSLPVTPGEPASISCQASESLVHSNRNTYLHWYLQKPGQSPQLLIYKVSNRFSGVPDRFSGSGSGTDFTLKISRVEAEDVGVYYCSQNTHVPPTFGQGTKVEIERTVAAPSVFIFPPSDEQLKSGTASVVCLLNNFYPREAKVQWKVDNALQSGNSQESVTEQDSKDSTYSLSSTLTLSKADYEKHKVYACEVTHQGLSSPVTKSFNRGEC | 1.26 | 83.8 relative, control = 100 | 105 relative, control = 100
4 | GpH7-A5/GpH7-B3 variant A330_08L/GpL16-k0 (antibody, human IgG1, kappa, position is EU numbering; also called He Ab) heavy 1: not shown heavy 2: not shown light: DIVMTQSPLSLPVTPGEPASISCQASESLVHSNRNTYLHWYLQKPGQSPQLLIYKVSNRFSGVPDRFSGSGSGTDFTLKISRVEAEDVGVYYCSQNTHVPPTFGQGTKVEIERTVAAPSVFIFPPSDEQLKSGTASVVCLLNNFYPREAKVQWKVDNALQSGNSQESVTEQDSKDSTYSLSSTLTLSKADYEKHKVYACEVTHQGLSSPVTKSFNRGEC | 1.77 | 70.5 relative, control = 100 | 124 relative, control = 100
5 | GpH7-A5/GpH7-B3 variant A330_10E/GpL16-k0 (antibody, human IgG1, kappa, position is EU numbering; also called He Ab) heavy 1: not shown heavy 2: not shown light: DIVMTQSPLSLPVTPGEPASISCQASESLVHSNRNTYLHWYLQKPGQSPQLLIYKVSNRFSGVPDRFSGSGSGTDFTLKISRVEAEDVGVYYCSQNTHVPPTFGQGTKVEIERTVAAPSVFIFPPSDEQLKSGTASVVCLLNNFYPREAKVQWKVDNALQSGNSQESVTEQDSKDSTYSLSSTLTLSKADYEKHKVYACEVTHQGLSSPVTKSFNRGEC | 1.21 | 70.1 relative, control = 100 | 84.6 relative, control = 100
6 | GpH7-A5/GpH7-B3 variant E333_01G/GpL16-k0 (antibody, human IgG1, kappa, position is EU numbering; also called He Ab) heavy 1: not shown heavy 2: not shown light: DIVMTQSPLSLPVTPGEPASISCQASESLVHSNRNTYLHWYLQKPGQSPQLLIYKVSNRFSGVPDRFSGSGSGTDFTLKISRVEAEDVGVYYCSQNTHVPPTFGQGTKVEIERTVAAPSVFIFPPSDEQLKSGTASVVCLLNNFYPREAKVQWKVDNALQSGNSQESVTEQDSKDSTYSLSSTLTLSKADYEKHKVYACEVTHQGLSSPVTKSFNRGEC | 1.21 | 81.4 relative, control = 100 | 98.2 relative, control = 100
7 | GpH7-A5/GpH7-B3 variant A330_07I/GpL16-k0 (antibody, human IgG1, kappa, position is EU numbering; also called He Ab) heavy 1: not shown heavy 2: not shown light: DIVMTQSPLSLPVTPGEPASISCQASESLVHSNRNTYLHWYLQKPGQSPQLLIYKVSNRFSGVPDRFSGSGSGTDFTLKISRVEAEDVGVYYCSQNTHVPPTFGQGTKVEIERTVAAPSVFIFPPSDEQLKSGTASVVCLLNNFYPREAKVQWKVDNALQSGNSQESVTEQDSKDSTYSLSSTLTLSKADYEKHKVYACEVTHQGLSSPVTKSFNRGEC | 1.53 | 67.1 relative, control = 100 | 103 relative, control = 100
8 | GpH7-A5/GpH7-B3 variant A330_20W/GpL16-k0 (antibody, human IgG1, kappa, position is EU numbering; also called He Ab) heavy 1: not shown heavy 2: not shown light: DIVMTQSPLSLPVTPGEPASISCQASESLVHSNRNTYLHWYLQKPGQSPQLLIYKVSNRFSGVPDRFSGSGSGTDFTLKISRVEAEDVGVYYCSQNTHVPPTFGQGTKVEIERTVAAPSVFIFPPSDEQLKSGTASVVCLLNNFYPREAKVQWKVDNALQSGNSQESVTEQDSKDSTYSLSSTLTLSKADYEKHKVYACEVTHQGLSSPVTKSFNRGEC | 1.37 | 76.1 relative, control = 100 | 104 relative, control = 100

From patent US20180155451A1 (published 2018)
